Assay results from the supplement of paper PMC10065799, “High-throughput profiling of sequence recognition by tyrosine kinases and SH2 domains using bacterial peptide display” (eLife, 2023).

System: c-Abl (mouse);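 also: 11-residue human phosphosite peptides and single-mutation variants displayed on the E. coli surface, counted by deep sequencing, each peptide's frequency after selection divided by its frequency in the unselected input library; frequency after pTyr selection over input frequency; kinase dosed for 20-30% of maximal phosphorylation in three min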
Test: phosphorylation enrichment, bacterial display (enrichment ratio); higher = better substrate or ligand; peptides without Tyr show the background
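For SH2 binding enrichment of the phosphorylated peptide, bacterial display in this document: peptide library displayed on the E. coli surface as eCPX fusions, selected cells deep-sequenced, score is each peptide's frequency after selection divided by its frequency in the input.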

Sequence | phosphorylation enrichment
LAGRFYALRSM [CKB_Y174_K177R_YF] | 0.642
KMTGRYEMYAR [UPB1_Y362] | 0.54
VNKIYYPDFIV [LIG3_Y768] | 0.596
IKELTYQMEED [MYH7_Y1852_T1854M] | 0.667
EREYKYGAHNH [OAT_Y50_Y55H] | 0.483
RFMVGYEMLAQ [GALT_Y339_K334R] | 0.849
ANNEFYFQVCA | 0.818
HEHVGYTTLNR [CHN1_Y148_Y143H] | 0.936
HIKHNYECLVY [XRCC5_Y416] | 0.882
KGSLPYSLILD [PKD1L2_Y406_N407S] | 0.86
HAVFVCDICHV [TWNK_Y508_Y508C_YF] | 0.641
IKGIRYLHHQG [GUCY2D_Y656_R660Q] | 0.403
YIATQYSLRPR [LBR_Y166] | 0.72
QQLVAYYSKHT [SRC_Y232_A237T] | 0.906
YLAAIYPTVGQ [NF1_Y2508_T2507I] | 0.597
FRVAGYETQGG [TIA1_Y383_YF] | 0.64
DNLNNYVFQGQ [GRIN2A_Y978] | 0.815

Sequence | phosphorylation enrichment
NYADPYRQLPY [CTNND2_Y503_Q507P] | 0.847
KVQVSYKGDTK [HSPA1A_Y107_E110D] | 0.615
HRAVEYLLTGI [RAD23A_Y197] | 0.709
QPEDIYHQTWA [GBA_Y244_G241E] | 9.69
LRSELYSLIAR [PHIP_Y16_F17S] | 0.566
EPTPGYEVGQR [TSC2_Y1788] | 0.602
PVGVLYKVKVF [PTS_Y128_YF] | 0.882
DRLASYQDKVR [KRT12_Y139_L140Q] | 0.516
HFMKLYEEKTG [PARP1_Y618] | 0.355
TRSCKYLLLSM [NF1_Y491_Y489C] | 0.614
EKSREYHRLFE [PIK3R1_Y463_D464H_YF] | 0.486
LIDGYYRLTED [JAK2_Y373_A377E] | 1.07
VERIGYDFIPT [CBS_Y308_G305R] | 0.593
SVVVPYEPPKV [TP53_Y220_E224K] | 0.895
QRPGPYDRPGA [HNRNPH2_Y210] | 0.496
VIKDKYPKARF [APTX_Y209_YF] | 0.646

Biological target: Grb2 SH2 (UniProt P62993)
Sequence (P62993 whole entry, looked up): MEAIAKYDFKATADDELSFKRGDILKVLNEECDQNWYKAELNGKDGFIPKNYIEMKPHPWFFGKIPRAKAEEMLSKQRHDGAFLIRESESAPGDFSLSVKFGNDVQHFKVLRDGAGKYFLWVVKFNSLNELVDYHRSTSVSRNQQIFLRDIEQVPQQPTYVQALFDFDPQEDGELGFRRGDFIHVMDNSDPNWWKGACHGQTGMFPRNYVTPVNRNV
Test: SH2 binding enrichment of the phosphorylated peptide, bacterial display (enrichment ratio); higher = better substrate or ligand; peptides without Tyr show the background

Sequence | SH2 binding enrichment
LAGRFYALRSM [CKB_Y174_K177R_YF] | 1.38
KMTGRYEMYAR [UPB1_Y362] | 1.13
VNKIYYPDFIV [LIG3_Y768] | 1.07
IKELTYQMEED [MYH7_Y1852_T1854M] | 0.825
EREYKYGAHNH [OAT_Y50_Y55H] | 0.981
RFMVGYEMLAQ [GALT_Y339_K334R] | 0.836
ANNEFYFQVCA | 0.741
HEHVGYTTLNR [CHN1_Y148_Y143H] | 0.88
HIKHNYECLVY [XRCC5_Y416] | 0.772
KGSLPYSLILD [PKD1L2_Y406_N407S] | 0.736
HAVFVCDICHV [TWNK_Y508_Y508C_YF] | 1.97
IKGIRYLHHQG [GUCY2D_Y656_R660Q] | 0.871
YIATQYSLRPR [LBR_Y166] | 0.762
QQLVAYYSKHT [SRC_Y232_A237T] | 0.865
YLAAIYPTVGQ [NF1_Y2508_T2507I] | 0.747
FRVAGYETQGG [TIA1_Y383_YF] | 0.822
DNLNNYVFQGQ [GRIN2A_Y978] | 0.819

Sequence | SH2 binding enrichment
NYADPYRQLPY [CTNND2_Y503_Q507P] | 0.775
KVQVSYKGDTK [HSPA1A_Y107_E110D] | 0.949
HRAVEYLLTGI [RAD23A_Y197] | 0.851
QPEDIYHQTWA [GBA_Y244_G241E] | 1.09
LRSELYSLIAR [PHIP_Y16_F17S] | 1.15
EPTPGYEVGQR [TSC2_Y1788] | 0.812
PVGVLYKVKVF [PTS_Y128_YF] | 0.706
DRLASYQDKVR [KRT12_Y139_L140Q] | 0.786
HFMKLYEEKTG [PARP1_Y618] | 0.766
TRSCKYLLLSM [NF1_Y491_Y489C] | 1.41
EKSREYHRLFE [PIK3R1_Y463_D464H_YF] | 0.912
LIDGYYRLTED [JAK2_Y373_A377E] | 0.886
VERIGYDFIPT [CBS_Y308_G305R] | 0.934
SVVVPYEPPKV [TP53_Y220_E224K] | 0.806
QRPGPYDRPGA [HNRNPH2_Y210] | 0.972
VIKDKYPKARF [APTX_Y209_YF] | 1.15

Biological target: c-Src SH2
Test: as above

Sequence | SH2 binding enrichment
LAGRFYALRSM [CKB_Y174_K177R_YF] | 1.2
KMTGRYEMYAR [UPB1_Y362] | 1.12
VNKIYYPDFIV [LIG3_Y768] | 0.675
IKELTYQMEED [MYH7_Y1852_T1854M] | 0.507
EREYKYGAHNH [OAT_Y50_Y55H] | 0.708
RFMVGYEMLAQ [GALT_Y339_K334R] | 2.32
ANNEFYFQVCA | 0.337
HEHVGYTTLNR [CHN1_Y148_Y143H] | 3.47
HIKHNYECLVY [XRCC5_Y416] | 5.15
KGSLPYSLILD [PKD1L2_Y406_N407S] | 10.5
HAVFVCDICHV [TWNK_Y508_Y508C_YF] | 1.98
IKGIRYLHHQG [GUCY2D_Y656_R660Q] | 0.829
YIATQYSLRPR [LBR_Y166] | 0.392
QQLVAYYSKHT [SRC_Y232_A237T] | 0.823
YLAAIYPTVGQ [NF1_Y2508_T2507I] | 1.39
FRVAGYETQGG [TIA1_Y383_YF] | 0.466
DNLNNYVFQGQ [GRIN2A_Y978] | 0.438

Sequence | SH2 binding enrichment
NYADPYRQLPY [CTNND2_Y503_Q507P] | 1.25
KVQVSYKGDTK [HSPA1A_Y107_E110D] | 0.525
HRAVEYLLTGI [RAD23A_Y197] | 0.575
QPEDIYHQTWA [GBA_Y244_G241E] | 0.61
LRSELYSLIAR [PHIP_Y16_F17S] | 1.89
EPTPGYEVGQR [TSC2_Y1788] | 0.6
PVGVLYKVKVF [PTS_Y128_YF] | 0.418
DRLASYQDKVR [KRT12_Y139_L140Q] | 0.546
HFMKLYEEKTG [PARP1_Y618] | 0.433
TRSCKYLLLSM [NF1_Y491_Y489C] | 1.04
EKSREYHRLFE [PIK3R1_Y463_D464H_YF] | 4.61
LIDGYYRLTED [JAK2_Y373_A377E] | 9
VERIGYDFIPT [CBS_Y308_G305R] | 3.49
SVVVPYEPPKV [TP53_Y220_E224K] | 0.64
QRPGPYDRPGA [HNRNPH2_Y210] | 1.05
VIKDKYPKARF [APTX_Y209_YF] | 1.04

Biological target: SHP2-C SH2
Test: as above

Sequence | SH2 binding enrichment
LAGRFYALRSM [CKB_Y174_K177R_YF] | 0.874
KMTGRYEMYAR [UPB1_Y362] | 0.909
VNKIYYPDFIV [LIG3_Y768] | 0.697
IKELTYQMEED [MYH7_Y1852_T1854M] | 0.605
EREYKYGAHNH [OAT_Y50_Y55H] | 0.743
RFMVGYEMLAQ [GALT_Y339_K334R] | 0.617
ANNEFYFQVCA | 0.662
HEHVGYTTLNR [CHN1_Y148_Y143H] | 61.4
HIKHNYECLVY [XRCC5_Y416] | 0.693
KGSLPYSLILD [PKD1L2_Y406_N407S] | 4.67
HAVFVCDICHV [TWNK_Y508_Y508C_YF] | 1.41
IKGIRYLHHQG [GUCY2D_Y656_R660Q] | 0.716
YIATQYSLRPR [LBR_Y166] | 0.685
QQLVAYYSKHT [SRC_Y232_A237T] | 1.48
YLAAIYPTVGQ [NF1_Y2508_T2507I] | 0.986
FRVAGYETQGG [TIA1_Y383_YF] | 0.745
DNLNNYVFQGQ [GRIN2A_Y978] | 0.617

Sequence | SH2 binding enrichment
NYADPYRQLPY [CTNND2_Y503_Q507P] | 0.749
KVQVSYKGDTK [HSPA1A_Y107_E110D] | 0.676
HRAVEYLLTGI [RAD23A_Y197] | 0.846
QPEDIYHQTWA [GBA_Y244_G241E] | 0.93
LRSELYSLIAR [PHIP_Y16_F17S] | 1.05
EPTPGYEVGQR [TSC2_Y1788] | 0.677
PVGVLYKVKVF [PTS_Y128_YF] | 0.607
DRLASYQDKVR [KRT12_Y139_L140Q] | 0.685
HFMKLYEEKTG [PARP1_Y618] | 0.962
TRSCKYLLLSM [NF1_Y491_Y489C] | 1.58
EKSREYHRLFE [PIK3R1_Y463_D464H_YF] | 0.753
LIDGYYRLTED [JAK2_Y373_A377E] | 4.88
VERIGYDFIPT [CBS_Y308_G305R] | 0.686
SVVVPYEPPKV [TP53_Y220_E224K] | 0.512
QRPGPYDRPGA [HNRNPH2_Y210] | 1.03
VIKDKYPKARF [APTX_Y209_YF] | 1.25
